Where no end group is shown, it is not given here. [ ]: non-standard residue; d: D form.
Key:
[1] = target: HIV-1BaL envelope glycoprotein on pseudotyped virus (HIV-1 strain BaL); test: cell-based or functional assay
HIV-1YU2 gp120 [2] = target: T1, HIV-1YU2 gp120 (HIV-1 strain YU-2, UniProt P35961 32-498, limits assumed); test: ITC; peptide titrated into gp120, 25 °C, PBS pH 7.4
T1 construct: domain: gp120
Method: The solutions contained within the calorimetric cells and injector syringes were prepared in PBS, pH 7.4 and thoroughly degassed to avoid bubble formation in the calorimetric cell. The heat evolved upon each injection of the peptide solution was obtained from the integral of the calorimetric signal. The heat associated with binding of a ligand to the protein in the cell was obtained by subtracting the heat of dilution from the heat of reaction. Heats of dilution due to mismatch between the syringe and cell solutions were negligible in all experiments.

[3] = target: HIV-1 gp120 on envelope-pseudotyped luciferase-reporter virus (strain not stated, Example 8) (HIV-1, strain ); test: cell-based or functional assay
HIV-1 92UG037-08 gp120 = target: T2, HIV-1 92UG037-08 gp120 (HIV-1 strain 92UG037-08); test: SPR direct binding; gp120 immobilized, peptide as analyte
T2 construct: domain: gp120; also called 92UG037-08 (A); 92Ugo37-08 gp120
Method: (§1) All surface plasmon resonance experiments (SPR) were performed on a BIA3000 optical biosensor (Biocore, Inc., Uppsala, Sweden). […] The indicated analytes were passed over the surfaces at a flow rate of 50 μL/minute, with 2.5 minute association phase and 2.5 minute dissociation phase.
Data analysis was performed using BIAEvaluation® 4.0 software (Biacore Inc., NJ). The responses of a buffer injection and responses from the control surface to which the mAb 2B6R was immobilized, were subtracted to account for nonspecific binding. Experimental data were fitted to a simple 1:1 Langmuir binding model with a parameter included for mass transport. The average kinetic parameters (association [kₐ] and dissociation [kd] rates) generated from a minimum of four datasets were used to define equilibrium association (KA) and dissociation constants (KD).

[4] = target: T3, soluble four domain CD4 (sCD4) (UniProt P01730 26-394, limits assumed); test: SPR, immobilized sCD4
T3 construct: domain: soluble four domain CD4; also called soluble CD4

HIV-1YU2 gp120 [5] = target: T1, HIV-1YU2 gp120; test: SPR direct binding, YU2 gp120 (Example 8); Example 8 determination
HIV-1YU2 gp120 [6] = target: T1, HIV-1YU2 gp120; test: SPR competition; gp120 binding to CD4
Method: as §1

HIV-1YU2 gp120 [7] = target: T1, HIV-1YU2 gp120; test: SPR direct binding; YU-2 gp120 immobilized (~3500 RU), peptide as analyte
Method: Surface plasmon resonance (SPR) interaction analyses were performed on a Biacore® 3000 optical biosensor (GE). All experiments were carried out at 25° C. using standard PBS, pH 7.4, with 0.005% Surfactant P20.
Regeneration of the surface was achieved by a one 5-second pulse of 10 mM glycine, pH 1.5.

[8] = target: T3, soluble four domain CD4 (sCD4); test: SPR, sCD4 surface
HIV-1YU2 gp120 [9] = target: T1, HIV-1YU2 gp120; test: SPR competition; gp120 binding to mAb 17b
Method: as §1

HIV-1YU2 gp120 [10] = target: T1, HIV-1YU2 gp120; test: ITC; peptide titrated into gp120, 25 °C, PBS pH 7.4; ITC, 25° C. in PBS, pH 7.4
Method: Data was obtained as 25° C. in PBS, pH 7.4.
The solutions contained within the calorimetric cells and injector syringes were prepared in PBS, pH 7.4 and thoroughly degassed to avoid bubble formation in the calorimetric cell. The heat evolved upon each injection of the peptide solution was obtained from the integral of the calorimetric signal. The heat associated with binding of a ligand to the protein in the cell was obtained by subtracting the heat of dilution from the heat of reaction.

HIV-1YU2 gp120 [11] = target: T1, HIV-1YU2 gp120; test: competition ELISA: mAb 17b (0.1 µg/ml) with peptide on plate-coated YU-2 gp120; blocked ligand mAb 17b (the UM10 curve that is not diamonds)
HIV-1YU2 gp120 [12] = target: T1, HIV-1YU2 gp120; test: competition ELISA: sCD4 (0.1 µg/ml) with peptide on plate-coated YU-2 gp120; blocked ligand sCD4 (diamonds per the legend)
HIV-1YU2 gp120 [13] = target: T1, HIV-1YU2 gp120; test: ELISA and SPR competition; gp120 binding to sCD4
HIV-1YU2 gp120 [14] = target: T1, HIV-1YU2 gp120; test: competition ELISA: IgG b12 with UM17 on immobilized YU-2 gp120; blocked ligand b12
HIV-1YU2 gp120 [15] = target: T1, HIV-1YU2 gp120; test: SPR competition; gp120 binding to mAb 17b; Example 8, Table 9
HIV-1YU2 gp120 [16] = target: T1, HIV-1YU2 gp120; test: SPR direct binding; YU-2 gp120 immobilized (~3500 RU), peptide as analyte; Example 9; SPR direct binding, peptide over immobilized gp120

Row | Binder | IC50 (µM), pseudotyped HIV-1BaL infection of HOS.CD4.CCR5 cells [1] [µM] | IC50 (µM), pseudotype virus cell infection assay [3] [µM] | IC50 (HIV-1YU2 gp120 [6]) [µM] | IC50 (HIV-1YU2 gp120 [9]) [µM] | koff (HIV-1YU2 gp120 [7]) [s⁻¹] | kon (HIV-1YU2 gp120 [7]) [M⁻¹ s⁻¹] | also measured
1 | INNI[Azp‑triazole‑ferrocene]W-NH2 (Rink amide resin; also called INNIPW) [UM15] | 6.9 | 7.2 | – | – | – | – | -TΔS (HIV-1YU2 gp120 [2]): 6.6 kcal/mol; ΔH (HIV-1YU2 gp120 [2]): -16.6 kcal/mol
2 | RINNIPWSEAMM (proline 6 is a 1,2,3-triazole-modified proline (from cis-4-azidoproline, Azp) 4-substituted with ferrocene) [HNG-156] | – | – | – | – | – | – | Kd (HIV-1 92UG037-08 gp120): 0.0163 µM; binding result [4]: no binding (tested: 10 to 600 nM)
3 | XNNIPWS (not fully specified; residue 1 is citrulline (Cit); proline 5 is a 1,2,3-triazole-modified proline (Azp) 4-substituted with ferrocene, Rink amide resin; also called CitNNIPWS) [UM24] | – | 4.9 | 0.081 | – | – | – | -TΔS (HIV-1YU2 gp120 [2]): 6.3 kcal/mol; ΔH (HIV-1YU2 gp120 [2]): -16.7 kcal/mol; Kd (HIV-1YU2 gp120 [5]): 0.021 µM
4 | RINNI[Azp‑triazole‑ferrocene] (also called RINNIP) [UM16] | – | – | – | – | – | – | Kd (HIV-1YU2 gp120 [7]): > 10 µM
5 | RINNI[Azp‑triazole‑ferrocene]W (also called RINNIPW) [UM12] | 6.8 | 12.5 | 0.124 | 0.218 | – | – | -TΔS (HIV-1YU2 gp120 [2]): 9.9 kcal/mol; ΔH (HIV-1YU2 gp120 [2]): -19.7 kcal/mol; binding result [8]: no binding
6 | NI[Azp‑triazole‑ferrocene]WS (also called NIPWS) [UM41] | – | – | – | – | – | – | -TΔS (HIV-1YU2 gp120 [10]): -1.6 kcal/mol; ΔH (HIV-1YU2 gp120 [10]): -6.1 kcal/mol
7 | [Azp‑triazole‑ferrocene]WSEAMM (also called PWSEAMM) [UM10] | 35 | – | – | – | – | – | IC50 (read off the curve) (HIV-1YU2 gp120 [11]): ~0.2 µM; binding result [8]: no binding; IC50 (read off the curve) (HIV-1YU2 gp120 [12]): ~2 µM; IC50 (HIV-1YU2 gp120 [13]): > 10 µM
8 | RINNI[Azp‑triazole‑ferrocene]WS-NH2 (Rink amide resin) [UM11] | 4 | 10.7 | – | 0.168 | – | – | –
9 | EINNI[Azp‑triazole‑ferrocene]WS-NH2 (Rink amide resin) [UM13] | 1.2 | 3.2 | 0.079 | – | – | – | –
10 | INNI[Azp‑triazole‑ferrocene]WS-NH2 (Rink amide resin; also called INNIPWS) [UM21] | 7.4 | 7.4 | 0.086 | – | – | – | –
11 | RNNI[Azp‑triazole‑ferrocene]WS (also called RNNIPWS) [UM22] | 11 | – | 0.123 | 0.181 | 0.0068 | 510000 | –
12 | FNNI[Azp‑triazole‑ferrocene]WS-NH2 (Rink amide resin; also called FNNIPWS) [UM28] | 13 | 11 | 0.105 | 0.174 | 0.0043 | 380000 | –
13 | KNNI[Azp‑triazole‑ferrocene]WS (also called KNNIPWS) [UM27] | 23 | – | 0.128 | 0.197 | 0.0088 | 590000 | –
14 | ENNI[Azp‑triazole‑ferrocene]WS-NH2 (Rink amide resin; also called ENNIPWS) [UM23] | 5.8 | 6.6 | 0.088 | 0.165 | 0.0034 | 130000 | –
15 | NNI[Azp‑triazole‑ferrocene]W (also called NNIPW) [UM17] | – | – | – | – | – | – | -TΔS (HIV-1YU2 gp120 [2]): 3.3 kcal/mol; ΔH (HIV-1YU2 gp120 [2]): -13.2 kcal/mol; IC50 (read off the curve) (HIV-1YU2 gp120 [14]): ~3 µM
16 | NNI[Azp‑triazole‑ferrocene]WS-NH2 (Rink amide resin; also called NNIPWS) [UM31] | 36 | 10 | 5 | – | – | – | -TΔS (HIV-1YU2 gp120 [2]): 4.1 kcal/mol; ΔH (HIV-1YU2 gp120 [2]): -13.8 kcal/mol; IC50 (HIV-1YU2 gp120 [15]): 16 µM
17 | RNI[Azp‑triazole‑ferrocene]WS (also called RNIPWS) [UM32] | – | – | – | – | 0.0031 | 3300 | –
18 | INI[Azp‑triazole‑ferrocene]WS-NH2 (Rink amide resin; also called INIPWS) [UM35] | 17 | 17 | – | – | – | – | Kd (HIV-1YU2 gp120 [16]): > 10 µM
19 | ENI[Azp‑triazole‑ferrocene]WS (also called ENIPWS) [UM33] | – | – | – | – | 0.0018 | 1100 | –

Source: patent publication US20130274178A1 (PHILADELPHIA HEALTH AND EDUCATION CORPORATION D B A DREXEL …, published 2013)
